For the experiment, the target named is α1-subunit of steroid C-25 dehydrogenase 1 (S25DH1), recombinant from Thauera aromatica K172 (Sterolibacterium denitrificans). Put plainly: co-purification (ion exchange and dye-affinity chromatography, SDS-PAGE); nontagged subunits coproduced in T. aromatica K172; soluble extract, anaerobic DEAE-Sepharose then Reactive Red 120, active fractions followed; SDS-PAGE, bands of S25DH1 identified by ESI-QTOF-MS of tryptic digests.
Sequence of α1-subunit of steroid C-25 dehydrogenase 1 (S25DH1), recombinant from Thauera aromatica K172 (Sterolibacterium denitrificans) (main, as listed by the source): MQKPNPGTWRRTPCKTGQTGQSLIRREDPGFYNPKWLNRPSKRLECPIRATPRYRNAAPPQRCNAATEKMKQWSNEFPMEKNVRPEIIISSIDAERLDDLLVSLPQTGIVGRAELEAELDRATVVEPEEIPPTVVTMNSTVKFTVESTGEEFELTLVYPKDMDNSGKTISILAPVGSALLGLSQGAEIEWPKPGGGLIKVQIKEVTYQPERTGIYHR

Consider “β3-subunit of steroid C-25 dehydrogenase, recombinant from Thauera aromatica K172 (natural protein)”, for which the stoichiometry N (usually a count of units in the complex or per binding partner) is 1 β3 per α1.

Regarding “γ3-subunit of steroid C-25 dehydrogenase, recombinant from Thauera aromatica K172 (natural protein)”, the stoichiometry N was 1 γ3 per α1.

These data come from article PMC6016249.
